# Measured values taken from paper PMC11527256.
# pKd: −log10 of the molar value.
# Columns and labels:
# K48-linked tri-UB [1] = target: K48-linked tri-UB (UniProt P0CG48); test: ITC
# K48-linked tetra-UB [2] = target: K48-linked tetra-UB (UniProt P0CG48); test: ITC
# K48-linked di-UB [3] = target: K48-linked di-UB (UniProt P0CG48); test: ITC
# K48-linked tri-UB [4] = target: K48-linked tri-UB (UniProt P0CG48); test: SEC-SAXS; complexes assembled at 170 μM, 1:1, in 20 mM HEPES pH 8.0, 150 mM NaCl, 1 mM TCEP; Superdex 75 10/300 increase coupled to SAXS (ESRF BM29)
# K48-linked tetra-UB [5] = target: K48-linked tetra-UB (UniProt P0CG48); test: as above
# K48-linked di-UB [6] = target: K48-linked di-UB (UniProt P0CG48); test: as above
# K63-linked di-UB = K63-linked di-UB (UniProt P0CG48); test: ITC
# K63-linked tri-UB = K63-linked tri-UB (UniProt P0CG48); test: ITC
# K63-linked tetra-UB = K63-linked tetra-UB (UniProt P0CG48); test: ITC
# K63-linked penta-UB = K63-linked penta-UB (UniProt P0CG48); test: ITC
# K48-linked penta-UB = K48-linked penta-UB (UniProt P0CG48); test: ITC
Substance,pKd (K48-linked tri-UB [1]),dH (K48-linked tri-UB [1]),stoichiometry N (K48-linked tri-UB [1]),pKd (K48-linked tetra-UB [2]),dH (K48-linked tetra-UB [2]),stoichiometry N (K48-linked tetra-UB [2]),pKd (K48-linked di-UB [3]),dH (K48-linked di-UB [3]),stoichiometry N (K48-linked di-UB [3]),further results
Cdu1^CA Q384A/A385R variant (from UniProt B0B9A0 130-401) (enzyme),5.78,7.7 kcal/mol,1.04,5.85,7.86 kcal/mol,1.14,5.46,3.89 kcal/mol,0.96,–
Cdu1^CA M149A/M153A variant (from UniProt B0B9A0 130-401) (enzyme),5.75,6.4 kcal/mol,1.01,5.91,10.9 kcal/mol,0.95,5.54,1.89 kcal/mol,0.98,–
"Cdu1^CA, catalytically inactive Cdu1(130-401) with C345 mutated to Ala (from UniProt B0B9A0 130-401) (enzyme)",6.10,7.05 kcal/mol,1.01,6.51,9.63 kcal/mol,0.99,5.59,3.67 kcal/mol,1.02,stoichiometry N (K48-linked tri-UB [4]): 1; stoichiometry N (K48-linked tetra-UB [5]): 1; stoichiometry N (K48-linked di-UB [6]): 1; pKd (K63-linked di-UB): 5.60; dH (K63-linked di-UB): 5.99 kcal/mol; stoichiometry N (K63-linked di-UB): 0.92; pKd (K63-linked tri-UB): 5.52; dH (K63-linked tri-UB): 7.34 kcal/mol; stoichiometry N (K63-linked tri-UB): 1.24; pKd (K63-linked tetra-UB): 5.35; dH (K63-linked tetra-UB): 9.93 kcal/mol; stoichiometry N (K63-linked tetra-UB): 1.6; pKd (K63-linked penta-UB): 5.18; dH (K63-linked penta-UB): 10.9 kcal/mol; stoichiometry N (K63-linked penta-UB): 2.3; pKd (K48-linked penta-UB): 6.55; dH (K48-linked penta-UB): 10 kcal/mol; stoichiometry N (K48-linked penta-UB): 0.99
